# Assay: yeast display, Sf9 membrane polyspecificity reagent, FACS + sequencing; frameworks hold sequencing errors
# How it was run: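 Nanobodies from a synthetic yeast display library (Saccharomyces cerevisiae BJ5465), induced 36–48 hours with galactose, were stained 1 hour at 4 °C with 10% biotinylated, detergent-solubilized Sf9 membrane reagent, enriched on streptavidin microbeads, then FACS-sorted. Anti-HA (expression) and streptavidin (reagent binding) fluorescence set low and high (top ~1%) gates. Polyreactivity labels come from the gate of origin. Genes were colony-PCR amplified, MiSeq 2 × 250 sequenced and filtered by CDR length.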
row,Sequence,polyreactivity (PSR sort gate)
1,QVQLVESGGGLVQAGGSLRLSCAASGRTLFVYAMGWYRQAPGKEREFVAAIRWRGGSTYYADSVKGRFTISRDNAKNTVYLQMNSLKPEDTAVYYCAADTYWVKTDYLYGYWGQGTQVTVSS,high polyreactivity
2,QVQLVESGGGLVQAGGSLRLSCAASGLIFLVNAMGWYRQAPGKERELVAAIDRDGGITYADSVKGRFTISRDNAKNTVYLQMNSQKPEDTAVYYCAADPSSYGRFTYDYWGQGTQVTVSS,low polyreactivity
3,QVQLVETGGGLVQAGGSLRLSCAASGRIFVGYAKGWYRQAPGKERELVAAISARGGSTYYADSVKGRFTISRDNAKNTVYLQMNSLKPEDTAVYYCAADEASSRGYYDYDYWGQGTQVTVSS,low polyreactivity
4,QVQLVESGGGLVQEGGSLRLSCAASGSTFSFYAMGWYRQAPGKERELVAAIDSGGRTKYADSVKGRFTISRDNAKNTVYLQMNSLKPEDSEVYYCGAVFRGWWLYDYWGKGTQVTVSS,low polyreactivity
5,QVQLVESGGGLVQAGGSLRLSCAASGIIFAWYAMGWYRQAPGKERELVAAISYSGGTTYYADSVKGRFTISRDNAKNTVYLQMNSLKPEDTAVYYCAARLHHFFTYDYWGQGTQVTVSS,low polyreactivity
6,QVQLVESGGGLVQAGGSLRLSCAASGSTFFGNAMGWYRQAPGKERELVAAITTGSGRTYYADSVKGRFTISRDNAKNTVYLQMNSLKPEDTAVYYCAARFSERVYVVPFGYWGQGTQVTVSS,high polyreactivity
7,QVQLVESGGGLVQAGGSLRLSCAASGSTFVTNDMGWYRQAPGKERELVAAISSGTSTNYADSVKGRFTISRDNAKNTVYLQMNSLKPEDTAVYYCAADSLKRYDYWGQGTQVTVSS,low polyreactivity
8,QVQLVESGGGLVQAGGSLRLSCAASGFTPGNVMGWYRQAPGKERELVAAISWSGDSTYYADSVKGRFTISRDNAKNTVYLQMNSLKPEDTAVYYCAADGVPGRAVDYEYWGQGTQVTVSS,high polyreactivity
9,QVQLVESGGGLVQAGGSLRLSCAASGITFYLYAMGWYRQAPGKERELVASITTDDSTNYADSVKGRFTISRDNAKNTVYLLMNSLKPEDTAVYYCATASYHRHHHGYDYWGQGTQVTVSS,low polyreactivity
10,QVQLVESGGGLVQAGGSLRLSCAASGSIFRSNDMGWYRQAPGKERELVARITSSVGSTYYADSVKGRFTISRDNAKNTVYLQMNSLKAEDTAVYYGAKRYYHYPYGYRDYDYWGQGTQVTVSS,low polyreactivity
11,QVQLVESGRGLVQAGGSLRLSCAASGRTFYGYARGCYRQAPGKERELVARISSGGGTYYADSVKGRFIISRDNAKYTVYLQMNSLKPEDTAVYYCNAEVYRWSGSYTGWDSWHDDWGQGTQVTVSS,low polyreactivity
12,QVQLVESGGGLVQAGGSLRLSCAASGFIFRYYAMGWYRQAPGNERELVAAISYSGGSTYYADSVKGRFTISRDNAKNTVYLQMNSLKPEDTAVYYGAAVLRTRDHPQPNYEYWGQGTQVTVSS,high polyreactivity
13,QVQLVESGGGLVQAGGSLRLSCAASGSIFGSYAMGWYRQAPGNERELVAAISKSGGNTYYADSVKGRFTISRDNAKNTVYLQMNSLKPEDTAVYYCAARYRFLRPKVNYWGQGTQVTVSS,high polyreactivity
14,QVQLVESGGGLVQAGGSLRLSCAPSGFTFRYNTMAWYRQAPGKERELVAAISSSGSSTYYADSVKGRFTISRDNAKNTVYLQMNSLKPVDTAVYYCNAVHRRTRYGYWGQGTQVTVSS,high polyreactivity
15,QVQLVESGGGLVQAGGSLRLSCAASGFNFPYYAMGWYRQAPGKERALVAAIRISGGSTYYADSVKGRFTISRDNAKNTVYLQMNSLKPEDTAVYYCAADYRYRSRFYYWGQGTQVTVSS,low polyreactivity
16,QVQLVESGGGLVQAGGSLRLSCAASGRTFKYNAMGWYRQAPGKERELVATITRSGGSTYADSVKGRFTISRDNAKNTVYLQMNSLKPEDTAVYYCNLFHVTKDYKTYPQSRYDYWGQGTQVTVSS,high polyreactivity
17,QVQLVESGGGLVQAGGILRLSCAASGSIFAYYAMGWYRQAPGKERELVAAIDSGGGTSYADSVKGRFTISRDNAKNTVYLQMNRLKPEDTAVYYCNAAGYVVYYRIIAFGYWGQGTQVTVSS,low polyreactivity
18,QVQLVESGGGLVQAGGSLRLSCAASGSTFGSNAMGWYRQAPGKERELVAAIDANGGSTYYADSVKGRFTISRDNAKNTVYLQMNSLKPEDTAVYYCAAAGYWYYYVPNDYWGQGTQVTVSS,low polyreactivity
19,QVQLVESGGGLVQAGGSLRVSCAASGRNFYYYAMGGYRQAPGKERELVAAINWSGGGTYYADSVKGRFTISRDNAKNTVYFQMNSLKPEDTAVYYCAAGFRYRYYWGQGTQVTVSS,high polyreactivity
20,QVQLVESGGGLVQAGGSLRLSCAASGLTFDVYTMGWYRQAPGKETEFVAAITWDGGITYYADSVKGRFTISRDNAKNSVYLQMNSLKPEDTAVYYCAADYALGEVYWYNYWGLGTQVTVSS,low polyreactivity
21,QVQLVESGGGLVQAGGSLRLSCAASGRIFVINAMGWYRQAPGKERELVAAIRSGGSTNYADSVKGRFTISRDNAKNTVYLQMNSLKPEDTAVNYCAARNSGRRSKAYDFKMNYWGQGTQVTVSS,high polyreactivity

row,Sequence,polyreactivity (PSR sort gate)
1,QVQLVESGRGLVQAGGSLRLSCAASGFIFNLYAMGWYRQAPGKERELVAAISGGGSTYYAYSVKGRFTISRDNAKNTVYLQMISLKPEDNAVYYCAKKGGHRTYGYDSWGQGTQVTVSS,low polyreactivity
2,QVQLEESGGGLVQAGGSLRLSCAASGSIFLGNAMGWYRQAPGKERDLVAAISGGDSTNYADAVKGRFTISRDNAKNTGYLEMNCLKPEDTAVYYCNAVRTLYIWWPGYYYCGQGTQVTVSS,low polyreactivity
3,QVQLVESGGGLVQAGGSLRLSCAASGITFSVNTMGWYRQAPGKERELVAAITSAGGTYYADSVKGRFTISRDNAKNTVYLQMNSQKPEDTAVYYCAAANFRSYLSQTGPRAYYYWGQGTQVTVSS,low polyreactivity
4,QVQLVESGGGLVQAGGSLRLSCAASGRIFSQYAMGWNRQAPGKERELVAAITWRGASTYYADSVKGRFTISRDNAKNTVYLQMNSLKPEDTAVYYCAAGYPQGRYYRVRWVGYWGQGTQVTVSS,high polyreactivity
5,QVQLVESGGGLVQAGGSLRLSCAASGRIFRTYAMGWYRQAPGKERELVAAINSVDRTYYADSVKGRFTISRDNAKNTVYLQMNSLKPEDTAVYYCAARGYRGHDEFGYWGQGTQVTVSS,high polyreactivity
6,QVHLVESGGGLVQAGGSLRLSCAASGSIFSWNAMGWYRQAPGKERELVAAISKRGTSTYYADSVKGRFTISRDNAKNTVYLQMNSLKPEDTAVYYCAARAQSYPYLSFDYWGQGTQVTVSS,high polyreactivity
7,QVQLVESGGGLVKAGGSLRLSSAASGRTFKWYAMGWSRQAPGKERELVAVITGRGGSTYYADSVKGRFTISRDNAKNTVYLQMNSLKPEDTAVYSCAARGYSLVASSLYYYWGQGTQVTVSS,high polyreactivity
8,QVQLVESGGGLVQAGGSLRLSCAASGFTLVLNAMGWYRQAPGKEREVVAAIRRSAGSTYYADSVKGRFTISRDNAKNTVYLQMNSLKPEDTAVYYCAAGFLWAKYAYGHWGQGTQVTVSS,low polyreactivity
9,QVQLVQSGGGLVQAGGSLRLISAASGSIFRYNAMGWYRHAPGKEREFVAAITRSGGSTYADSVKGRFTISRDNAKNTLYLQIHSLKPEDTAVYYCAATFKWYSHSKPRFDYWGHGTQVTVSS,low polyreactivity
10,QVQLVESGGGIVHAGGSLRLSCAASGSTFDSYARGWYRQAPGKERELVAAITDSGSSTYYADSVKGRFTISRDNAKNTVYLQMNSLKPEDSAVYYCANYDYHGWSYYRYDYWGQGTQVTVSS,low polyreactivity
11,QVQLVESGGGLVQAGGSLRLSCAASGRNFPLNAMGWYRQAPWKERELVAAISIGGSTYYADSVKGRFTISRDNPKNTVYLQMNSLKPDETAVYYCAAVWYTSRQKYDYWGQGTQVTVSS,low polyreactivity
12,QVQLVESGGGLVQAGGSLRLSCAASGSIFPYNVMGWYRQAPGKERELVAAISTRGGRTYYADSVKGRFTISRDNAKNTVYLQMNSLKPEDTAVYYCATAGGPYSASGYYWGQGTQVTVSS,high polyreactivity
13,QVQLVESGGGLDQAGGSLRLSCAASGSTFRNNAMGCYRQAPGKEREFVAAISRRGGSTYADSVKGRFTISRDNAKITVYLQMNSLKPEDTAVYFCAVRPSRILTGGRMDYWGQGTQVTVSS,high polyreactivity
14,QVQLVESGGGLVQAGGSLRLSCAASGIFVTYAMGWYRQAPGTERELVAAIRYSGDSTYYADSVKGRFTISRDNAKNTVYLQMNSLKPEETAVYYCAATKGWSRYEYWGQGTQVTVSS,low polyreactivity
15,QVQLVESGGGLVQAGGSLRLSCAASGRIFWDNAMGWYRQAPGKVRELVAVMNSGDSTNYADSVKGRFTISRDNAKNTVYLQMNSLKPEDTAVYYCATDFIGVIYDYWGQGTQVTVSS,low polyreactivity
16,QVQLVESGGGLVQAGGSLRLSCAASGRTFYYYYTMGWYRQAPGKERELVAAISRSGSTNYADSVKGRFTISRDNAKNTVYLQMNSLKPEDTAVYYCAKETNRVGRYHCGQGTQVTVSS,low polyreactivity
17,QVQLVESGGGLVQAGGSLRLSCAASGRISKRNVMGWYRQAPGKERELVAGITSTGSTSYADSVKGRFTISRDNAKNTVYLQMNSLKPEDTAVYYCAARGQATYNWGQGTQVTVSS,high polyreactivity
18,QVQHVESGGGLVQAGGSLRLSCAASGSTSPGYAMGWSRQAPGKERELVAAITFRGTRTYYADSVKGRFTISRDNAKNTVYLQMNSQKPEDTAVYYCNVVGYGPNRGRVDYWGQGTQVTVSS,high polyreactivity
19,QVQLVESGGGLVQAGGSLRLICAASGNTFTGYVMGWNRQAPGKEREYVAAIRSGGSTYYADSVKGRFTISRDNAKNTVYLQMNSLKPEDTSVYYCAKCVTPYRTSAYGYWGQGTQVTVSS,high polyreactivity
20,QVQLVESGGGLVQAGGSLRLSCAASGFTFKYYVMGWYRQAPGKAREWVAAITNGGSTYYADSVKGRFTISRDNAKNTVYLQMNSLKPEDTAVYYCAASAYYHWLFDYRGQGTQVTVSS,high polyreactivity
